Source: publication PMC7054047 (The FEBS journal, 2019)

B1: WSCP A0A087HRG5 from Arabis alpina (natural protein)
chain: not shown
B2: WSCP from Arabidopsis thaliana (natural protein, UniProt Q9C7S6 24-215, looked up)
chain: NEPVKDTAGNPLNTREQYFIQPVKTESKNGGGLVPAAITVLPFCPLGITQTLLPYQPGLPVSFVLALGVGSTVMTSSAVNIEFKSNIWPFCKEFSKFWEVDDSSSAPKEPSILIGGKMGDRNSSFKIEKAGEGARANVYKLTTFYGTVGAIPGVWLSAPQLIITKDTAKTLLVKFKKVDDATTATSNLYFPG
B3: WSCP M4FJ52 from Chinese cabbage (Brassica rapa subsp. Pekinensis) (natural protein)
chain: not shown

Target: the molecule itself
Experiment: SEC

Stoichiometry N, 4:
B1, B2, B3
